The results in this text go back to article PMC3511314, “Functional Characterization of Two M42 Aminopeptidases Erroneously Annotated as Cellulases” (PLoS ONE, 2012).

Common to all, as to assay: Michaelis-Menten kinetics of pNA hydrolysis (Km)
Conditions in all cases: Co2+

Substrate in data set [1]: CC[C@H](C)[C@H](N)C(=O)Nc1ccc([N+](=O)[O-])cc1
The class given is biochemical, Acetivibrio thermocellus.

Substrate in data set [2]: CSCC[C@H](N)C(=O)Nc1ccc([N+](=O)[O-])cc1
The class given is biochemical, Acetivibrio thermocellus.

Substrate in data set [3]: CC(C)C[C@H](N)C(=O)Nc1ccc([N+](=O)[O-])cc1
It counts as biochemical, Acetivibrio thermocellus.

Substrate in data set [4]: CC[C@H](C)[C@H](N)C(=O)Nc1ccc([N+](=O)[O-])cc1
The class given is biochemical, Thermotoga maritima.

Substrate in data set [5]: CSCC[C@H](N)C(=O)Nc1ccc([N+](=O)[O-])cc1
The class given is biochemical, Thermotoga maritima.

Substrate in data set [6]: CC(C)C[C@H](N)C(=O)Nc1ccc([N+](=O)[O-])cc1
It counts as biochemical, Thermotoga maritima.

B1: CelM (Acetivibrio thermocellus) (protein)
chain: MEEEDMFDLLKKFTGIVGVSGNEEEIREAIIEEIKECVDEIKVDTLGNLIAVKKGKGKKIMVAAHMDEIGVMVTYIDDKGFLRFSAVGGVSRYDCIGQRVKFKNGVVGAVYYEEKLEDMKNLQLSKMYIDIGARSREEALKMVNIGDVACFVGDAVLQGDTVISKALDNRSGCAVVVKAIKELKKTDNEIYFVFTVQEEVGLRGAKTAAFSIKPDIAIAVDVTMTGDTPESHPMEVKCGGGPAIKVKDRSVICHPEVRKLLEESAKRNNIPYQLEILEAGGSDPGSIHLTAGGIPSGAISIPVRYVHSPVETASMSDINNAVKLLVEAIC
notes: recombinant dodecameric CelM bearing a C-terminal hexahistidine tag
In general, Km refers to the concentration of substrate that gives half-maximal velocity. Broadly, the kcat is the number of substrate molecules converted per active site and unit of time at saturation. In general, kcat/Km refers to the turnover number divided by the Michaelis constant. On to B1, for which the Km in data set [1] stood at 2800 ± 200 µM; in data set [2] it was 2900 ± 150 µM; in data set [3] it was 3500 ± 400 µM. The kcat in data set [1] was determined as 0.11 ± 0.01 s⁻¹; in data set [2], 0.072 ± 0.006 s⁻¹; in data set [3], 0.4 ± 0.03 s⁻¹. Moreover, the specificity constant (kcat/Km) amounted to 39.3 M⁻¹ s⁻¹ in data set [1], 24.8 M⁻¹ s⁻¹ in data set [2] and 114 M⁻¹ s⁻¹ in data set [3].

B2: TmPep1050 (Thermotoga maritima MSB8) (protein)
chain: MKELIRKLTEAFGPSGREEEVRSIILEELEGHIDGHRIDGLGNLIVWKGSGEKKVILDAHIDEIGVVVTNVDDKGFLTIEPVGGVSPYMLLGKRIRFENGTIGVVGMEGETTEERQENVRKLSFDKLFIDIGANSREEAQKMCPIGSFGVYDSGFVEVSGKYVSKAMDDRIGCAVIVEVFKRIKPAVTLYGVFSVQEEVGLVGASVAGYGVPADEAIAIDVTDSADTPKAIKRHAMRLSGGPALKVKDRASISSKRILENLIEIAEKFDIKYQMEVLTFGGTNAMGYQRTREGIPSATVSIPTRYVHSPSEMIAPDDVEATVDLLIRYLGA
notes: recombinant TmPep1050 (TM1050 ORF)
With B2, in data set [4], the Km was determined as 1900 ± 200 µM, the kcat amounted to 0.059 ± 0.008 s⁻¹ and the kcat/Km is 31.1 M⁻¹ s⁻¹. In addition, in data set [5], the Km is 650 ± 50 µM, the catalytic constant (kcat) is 0.009 ± 0.001 s⁻¹ and the kcat/Km stood at 13.8 M⁻¹ s⁻¹. Moreover, in data set [6], the Km was determined as 4000 ± 300 µM, the turnover number (kcat) was found to be 0.253 ± 0.019 s⁻¹ and the specificity constant (kcat/Km) amounted to 63.2 M⁻¹ s⁻¹.
